Experimental data published in article PMC8178393.

Biological target: pyruvate kinase isozyme M2 (mouse (endogenous in splenic CD4+ T cells polarized into Th17 cells)) (UniProt P52480)
Assay: cross-linking; Th17 cells treated with or without HCA for 24 h; cells washed with ice-cold PBS pH 8.0, disuccinimidyl suberate at 1 uM for 30 min at room temperature, quenched with 10 mM Tris, lysed, Western blot for monomeric and tetrameric PKM2

Chain of pyruvate kinase isozyme M2, P52480 1-531 (enzyme; other documents disagree on this pair) (P52480 whole entry): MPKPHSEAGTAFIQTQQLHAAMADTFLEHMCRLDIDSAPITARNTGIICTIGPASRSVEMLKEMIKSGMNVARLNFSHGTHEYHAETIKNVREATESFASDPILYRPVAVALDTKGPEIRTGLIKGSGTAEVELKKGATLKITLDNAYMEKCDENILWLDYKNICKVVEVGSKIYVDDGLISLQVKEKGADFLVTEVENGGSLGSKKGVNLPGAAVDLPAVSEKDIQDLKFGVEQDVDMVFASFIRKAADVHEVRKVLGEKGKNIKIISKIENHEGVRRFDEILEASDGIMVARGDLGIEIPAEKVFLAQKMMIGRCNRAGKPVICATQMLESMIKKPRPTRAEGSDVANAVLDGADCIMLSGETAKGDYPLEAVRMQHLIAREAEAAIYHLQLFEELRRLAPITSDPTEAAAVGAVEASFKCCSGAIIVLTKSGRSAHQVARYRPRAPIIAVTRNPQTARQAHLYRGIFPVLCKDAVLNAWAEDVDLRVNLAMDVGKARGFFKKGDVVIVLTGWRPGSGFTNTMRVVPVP

- stoichiometry N: 4
Substance: pyruvate kinase isozyme M2, P52480 1-531 (enzyme; other documents disagree on this pair)
